Measured values taken from patent US20170296650A1.

How the values were obtained:
[1] = target: hCMV gH (HEK293T transfectant) (hCMV), P12824; assay: cell competition; competitor 11B12-biotin; conditions: remark: other sources report otherwise
[2] = target: hCMV gH (HEK293T transfectant) (hCMV), P12824; assay: cell competition; competitor 3G16-biotin; conditions: remark: other sources report otherwise
[3] = target: hCMV gH (HEK293T transfectant) (hCMV), P12824; assay: cell competition; competitor 13H11-biotin; conditions: remark: other sources report otherwise
gB 69-78 peptide (hCMV) = gB 69-78 peptide (hCMV) (UniProt P06473); assay: ELISA, gB 69-78 peptide

Row | Binder | Inhibition of binding (%) [1] [%] | Inhibition of binding (%) [2] [%] | Inhibition of binding (%) [3] [%] | EC50 (gB 69-78 peptide (hCMV)) [µg/mL]
1 | 13H11 (antibody, V domains shown) VH: QVQLVQSGAEVKKPGASVKVSCKASGYTFTNYYIHWVRQAPGQGLEWMGIIHPSSGGTSYAQKFQGRVTMTRDTSTSTVSMDLSSLRSEDTAVYYCGRAFRILGLSDVFVNDWGQGTVVTVSS VL: DIQMTQSPSSLSASVGDRVTITCRASQGINNYLAWYQQKPGKVPKLLIYAASTLQSGVPSRFSGSGSGTAFTLTILSLQPEDVATYYCQKYNSAPFTFGPGTKVDIK | 100 | 0 | 100 | –
2 | 3G16 (antibody, V domains shown) VH: RAQLVQSAAEMKNPGASVKVSCEASGYTFTGYYVHWMRQAPGQGLEWMGWINPMTGATKSPQKFQGRVTMTRDTSTTATHIELTRLRSDDSAVFFCARGGPTSTRITGKRHFDLWGRGTLITVAS VL: QSALTQPASVSGSPGESITISCTGTISDVGAYNSVSWYQQHSGTAPELIIYDVTNRPAGVSSRFSGSKSGNTASLTISWLQSEDEAEYYCSSYTTSDTYVFGSGTQVTVL | 0 | 100 | 0 | –
3 | 11B12 (antibody, V domains shown) VH: QMQLVQSGPQVKKPGTSVKVSCKASGFTFTSSAMQWVRQARGQRPEWIGWIVLGSGNTNYAQKFQERVTLTRDMSTATAYMELSSLRSEDTAVYYCAADRGRGGYNVYTYWGQGTLVAVSS VL: EIVMTQSPGTLSLSPGERATLSCRASQTISNTYVAWYQQKPGQAPRLLIYGASSRATGIPDRFSGSGSGTDFTLTIRRLEPEDFAVYYCQQNGQSPWTFGQGTNVEIK | 100 | 0 | 100 | –
4 | 6B4 (antibody, V domains shown) VH: QVQLVESGGGVVQPGRSLRLSCAASGFRFNEFNMHWVRQAPGKGLEWVAVISIDGRHKYNADSVEGRFTISRDNSRNTLYLQMNSLRVEDTALYYCVTDGKAVDGFSGILEFWGQGTPVTVST VL: EIVLTQSPATLSLSPGERATLSCWASQSVGGYLAWYQQKPGQAPRLLIYDASIRATGIPARFSGSGSGTHFTLTINSLEPEDFAVYYCQQRNNWPPLTFGGGTKVEIK | – | – | – | 0.044
